Experimental data from patent US11180762B2, “Methods and compositions for the treatment of cancer” (CHILDREN'S MEDICAL CENTER CORPORATION, priority 2014, dated 2021).
Entries after “also recorded” stand apart in the source; their conditions may differ.

Assays:
basal-A TNBC tumors = conditions: mouse, in vivo
Description: We next tested whether proteasome inhibition inhibited the growth of basal-like TNBC tumors in mice.

basal-A TNBCs = assay: Bortezomib on TNBC cell lines in vitro; type: cell-based, human
breast cancer cell lines [1] = assay: Sphere (mammosphere) formation assay; type: cell-based, human
Procedure: (§1) For colony formation assay, 1,000 viable cells were treated for 6 h in round bottom 96-well plates and then transferred to 10-cm plates in serum-containing medium. Medium was replaced every 3 d. After 8-14 d, cells were fixed in methanol (−20 C) and stained with crystal violet. For sphere formation assay, 1,000/ml viable cells were treated for 6 h in round bottom 96-well plates and then cultured in suspension in serum-free DMEM/F12 1:1 (Invitrogen), supplemented with EGF (20 ng/ml, BD Biosciences), B27 (1:50, Invitrogen), 0.4% bovine serum albumin (Sigma) and 4 μg/ml insulin (Sigma). Spheres were counted after 1 or 2 weeks.

breast cancer cell lines [2] = assay: Colony formation assay; type: cell-based, human; conditions: AsiC 4 uM, paclitaxel 100 nM
Procedure: as §1

AKT1 = AKT1 mRNA and protein knockdown in breast cancer cell lines; type: cell-based, human; design: AKT1 protein silencing by flow cytometry: dose or concentration left out as unconfirmed; conditions: for AKT1 mRNA and protein knockdown across cell lines: basal-A, luminal, basal-B lines, fibroblasts
Procedure: (§2) For uptake and silencing treatment, cells were plated at low density (10,000 cells/well in 96-well plates) and treated immediately. All AsiC and siRNA treatments were performed in either OptiMEM or WIT medium. Cell viability was assessed by CellTiter-Glo (Promega) or by Trypan-Blue staining in 96-well plates.
For flow cytometry, cells were stained as previously described (Yu, F. et al (2007). let-7 Regulates Self Renewal and Tumorigenicity of Breast Cancer Cells. Cell 131, 1109-1123. ), briefly, direct immunostaining of EpCAM and AKT1 was performed using 1:50 dilutions of hAb for 30-60 minutes at 4° C. (BioLegend/BD). Cells were stained in PBS containing 0.5% FCS, 1 mM EDTA, and 25 mM HEPES. Samples were washed twice in the same buffer. Data was acquired using FACS-Canto II (BD Biosciences). Analyses were performed in triplicate and 10,000 gated events/sample were counted. All data analysis was performed using FlowJo (Treestar Inc.).
qRT-PCR analysis was performed as described (Petrocca, F., et al. (2008). E2F1-regulated microRNAs impair TGFbeta-dependent cell-cycle arrest and apoptosis in gastric cancer. Cancer Cell 13, 272-286). Briefly, total RNA was extracted with Trizol (Invitrogen) and cDNA prepared from 1000 ng total RNA using Thermoscript RT kit (Invitrogen) as per the […] (Applied Biosystems) and a BioRad C1000 Thermal Cycler (Biorad). Relative CT values were normalized to GAPDH and converted to a linear scale.

Argonaute (AGO) = assay: PLK1 siRNA association with Argonaute (pan-AGO immunoprecipitation, qRT-PCR); type: cell-based, human; conditions: MDA-MB-468 cells treated 2 days
Description: MB-468 cells, treated with PLK1 EPCAM-AsiC or siRNA for 2 days, were lysed, and cell lysates were immunoprecipitated with pan-AGO antibody or IgG isotype control. The amount of PLK1 siRNA in the immunoprecipitates was quantified by Taqman qRT-PCR, presented as log2 mean with SEM, relative to miR-16. **, P<0.01 by Student's t-test relative to siRNA-treated cells. ND, not detectable. […] This is likely because most RNAs that are taken up by cells are not released from endosomes to the cytosol (A. Wittrup et al., Visualizing lipid-formulated siRNA release from endosomes and target gene knockdown. Nature Biotechnology 2015, in press).
Uptake was clearly detected at 22 hr, but increased greatly after 43 hr. To test whether EpCAM-AsiCs are specifically taken up by EpCAM bright cell lines, the 3′ end of the antisense strand of the AsiC was fluorescently labeled. […] Previous studies have shown that AsiCs are processed within cells by Dicer to release the siRNA from the aptamer (10, 12, 15).

[3] = test system: basal-A, luminal and basal-B breast cancer cell lines; assay: Cell proliferation/viability by CellTiter-Glo in 10 breast cancer cell lines; type: cell-based, human
Description: To explore whether EpCAM-AsiCs could be used as anti-tumor agents in breast cancer, we examined by CellTiterGlo assay the effect of AsiCs directed against PLK1, a kinase required for mitosis, on survival of 10 breast cancer cell lines that included 5 basal-A TNBCs, 2 luminal cell lines, and 3 basal-B TNBCs. […] The anti-proliferative effect strongly correlated with EpCAM expression (FIG. 2B). The reduction in viable EpCAM+ cells after knockdown was due to induction of apoptosis, assessed by annexin V-propidium iodide staining and caspase activation (data not shown). To determine whether ligation of the EpCAM aptamer contributed to the anti-proliferative effect of the EpCAM-AsiC, we compared survival of cells that were treated with the PLK1 EpCAM-AsiC with cells treated with the aptamer on its own (FIG. 2C). […] Thus the PLK1 EpCAM-AsiC asserts its specific anti-tumor effect on EpCAM+ breast cancer cells by gene knockdown.
as §2

MB468-luc tumors = assay: Tumor inhibition, EpCAM+ MB468-luc xenograft; type: in vivo, nude mice; conditions: 5 mg/kg sc every 3 d (72 h) for 2 wks
Procedure: (§3) For tumor inhibition studies, MB468-luc (5×10^6) and MB231-luc-mCherry (5×10^5) cells trypsinized with Tryple Express (Invitrogen), resuspended in a 1:1 WIT-Matrigel solution and injected subcutaneously in the flank of 8-week old female Nu/J mice (Stock #002019, Jackson Laboratories). Tumors size was analyzed daily using the IVIS Spectra, after 5 days tumors were clearly visible. […] Mice were treated every 72 h for 14 days.

[4] = test system: eGFP expression in BPLER and BPE cells; assay: eGFP knockdown in GFP-expressing BPLER and BPE cells; type: cell-based, human; conditions: AsiC 4 μM without lipid, siRNA 100 nM with Dharmafect, 72 hours
Procedure: FIG. 21A depicts the design of EpCAM-AsiC, containing an EpCAM aptamer and a PLK1 siRNA (sense strand disclosed as SEQ ID NO: 1 and antisense strand disclosed as SEQ ID NO: 2). […] EpCAM-AsiC targeting GFP was Alexa647 or Cy3 labeled at the 3′ end of the antisense siRNA strand and incubated with BPLER and BPE cells. Uptake was assessed 24 hours later by flow cytometry (FIG. 21C). Data are representative of 3 independent experiments. Cy3 and Alexa647-labeled EpCAM-AsiC was taken up by MB468 and BPLER (EpCAM+ cells) respectively and not by BPE (EpCAM−). MFI of each peak is shown (mock, gray). FIG. 21D depicts graphs of experiments in which, to test for gene silencing, BPLER and BPE were treated with EpCAM-AsiC targeting GFP (4 μM) and compared to Transfection controls using Dharmafect and GFP-siRNA (100 nM). Knockdown was assessed by flow cytometry 72 hours after incubation. Controls were mock and Dhrmafect only treatment (lipid). (n=4).
as §2
Cells were transfected with Dharmafect I per the manufacturer's protocol. See FIG. 9 for all siRNA sequences.

MB231-luc-mCherry tumors = assay: Tumor inhibition, EpCAM− MB231-luc-mCherry xenograft; type: in vivo, nude mice; conditions: 5 mg/kg sc every 3 d (72 h) for 2 wks
Procedure: as §3

MB468-luc cells = assay: Tumor initiation by ex vivo treated EpCAM+ cells in nude mice; conditions: cells treated ex vivo 24 h/overnight, then implanted; imaged 20 days; listed as EpCAM-AsiC targeting GFP
Procedure: For tumor initiation studies 8-week old female Nu/J mice (Stock #002019, Jackson Laboratories) were injected subcutaneously with MB468-luc (5×10^6) cells pretreated for 24 h with EpCAM-AsiC-GFP, EpCAM-AsiC-PLK1 or untreated. Cells were trypsinized with Tryple Express (Invitrogen), resuspended in WIT media and injected subcutaneously in the flank. Following intraperitoneal injection of 150 mg/kg D-luciferin (Caliper Life Sciences) luminescent images of the whole body were taken every 5 days for a total of 20 days using the IVIS Spectra system (Caliper Life Sciences).

CC(C)C[C@H](NC(=O)[C@H](Cc1ccccc1)NC(=O)c1cnccn1)B(O)O [bortezomib]
penetration into solid tumors (basal-A TNBC tumors): does not penetrate well into solid tumors | killing and T-IC function (colony, mammosphere) (basal-A TNBCs): both killed basal-A TNBCs and also blocked T-IC function | viable cells after treatment (basal-A TNBCs; 24 hr): ~40%

CC(=O)O[C@H]1C(=O)[C@@]2(C)[C@H]([C@H](OC(=O)c3ccccc3)[C@]3(O)C[C@H](OC(=O)[C@H](O)[C@@H](NC(=O)c4ccccc4)c4ccccc4)C(C)=C1C3(C)C)[C@]1(OC(C)=O)CO[C@@H]1C[C@@H]2O [paclitaxel, reference compound]
sphere/mammosphere formation, cell lines tested (breast cancer cell lines [1]): reduced sphere-formation in all | colony formation, EpCAM+ basal-A and luminal lines (breast cancer cell lines [2]): resistant clones emerged | colony formation, EpCAM− basal-B lines (breast cancer cell lines [2]): reducing colony formation but still resistant clones invariably emerged | colony formation, cell lines tested (breast cancer cell lines [2]): decreased colony formation in all cells lines

AKT1 siRNA: AKT1 siRNA, sense SEQ ID NO: 29, antisense SEQ ID NO: 30 (sense GCUGGAGAACCUCAUGCUG; antisense CAGCAUGAGGUUCUCCAGC; listed as RNA, chemistry not given here) [reference compound]
AKT1 mRNA and protein knockdown across cell lines (AKT1): comparably knocked down expression in all the cell lines studied

PLK1 siRNA: PLK1 siRNA, sense SEQ ID NO: 31, antisense SEQ ID NO: 32 (sense UGAAGAAGAUCACCCUCCUUA; antisense UAAGGAGGGUGAUCUUCUUCA; listed as RNA, chemistry not given here) [reference compound]
PLK1 siRNA bound to Ago / in the RISC (Argonaute (AGO)): No PLK1 siRNA bound to Ago | cell proliferation/viability, all cell lines tested [3]: suppressed the growth of all the cell lines | growth of EpCAM+ MB468 tumors (MB468-luc tumors): continued to grow without significant change; also recorded: neither of which had any anti-tumor activity

B1: GFP EpCAM-AsiC: EpCAM aptamer-GFP siRNA chimera, sense SEQ ID NO: 25, antisense SEQ ID NO: 26 (nucleic acid)
sense: GCGACUGGUUACCCGGUCGUUUGGCUACGUCCAGGAGCGCATT
antisense: UGCGCUCCUGGACGUAGCCTT
modifications: DNA at T, 2'-fluoro at CU, RNA at AG, backbone not given here; EpCAM aptamer fused to sense strand
eGFP knockdown, BPLER vs BPE ([4]; listed as EpCAM-AsiCs targeting GFP): selectively knocked down expression in BPLER | eGFP knockdown, BPLER vs BPE ([4]; listed as eGFP EpCAM-AsiCs): selectively knocked down expression only in BPLER | sphere/mammosphere formation, cell lines tested (breast cancer cell lines [1]): had no effect | colony formation, cell lines tested (breast cancer cell lines [2]): had no effect | growth of EpCAM− MB231 tumors (MB231-luc-mCherry tumors; listed as EpCAM-Asic targeting GFP): suppress tumor growth in both EpCAM+ and EpCAM-tumors but didn't eliminate tumors | growth of EpCAM− MB231 tumors (MB231-luc-mCherry tumors; listed as eGFP-targeting AsiCs): continued to grow | tumor initiation, EpCAM+ cells (MB468-luc cells): displayed tumors after 5 days; also recorded: displayed increase in tumor initiation | growth of EpCAM+ MB468 tumors (MB468-luc tumors; listed as GFP AsiC): did not increase in size as much as control untreated mice | growth of EpCAM+ MB468 tumors (MB468-luc tumors; listed as eGFP-targeting AsiCs): continued to grow | AKT1 mRNA and protein knockdown across cell lines (AKT1; listed as AsiCs targeting eGFP): had no effect on AKT1 levels | AKT1 mRNA and protein knockdown across cell lines (AKT1; listed as EpCAM-AsiC targeting GFP): did not effect any of the cell lines

B2: AKT1 EpCAM-AsiC: EpCAM aptamer-AKT1 siRNA chimera, sense SEQ ID NO: 23, antisense SEQ ID NO: 24 (nucleic acid)
sense: GCGACUGGUUACCCGGUCGUUGCUGGAGAACCUCAUGCUGTT
antisense: CAGCAUGAGGUUCUCCAGCTT
modifications: chemistry not fully specified
AKT1 protein silencing by flow cytometry (AKT1; EpCAM-AsiC for 5 days): specific AKT1 protein silencing | AKT1 mRNA and protein knockdown across cell lines (AKT1; listed as EpCAM-AsiC targeting AKT1): decreased AKT1 mRNA and protein levels | AKT1 mRNA and protein knockdown across cell lines (AKT1; listed as EpCAM-AsiCs targeting AKT1): only in EpCAM^bright luminal and basal-A TNBCs
